# In the supplement of paper PMC9233669:
# Variants at the floor of the assay were thinned out.
# How the values were obtained:
# [1] = system: biotinyl-Phe-oxazolone; assay: self-aminoacylation, catalytic enhancement (BFO) (fold over background); higher = more active; k-Seq, kA / k0A0; sequences stand for … in GGGAAUGGAUCCACAUCUACGAAUUC…UUCACUGCAGACUUGACGAAGCUG
# Summary of the method: (§1)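 Each biotinyl-aminoacyl-oxazolone, at 2–1250 μM, was incubated with mutagenized RNA pools (0.43 μM) carrying a 21-nt variable region. The 50 μL reactions contained HEPES/NaCl/KCl/MgCl2/CaCl2 buffer with 5% acetonitrile at pH 6.9–7.0 and ran for 90 minutes at room temperature. After streptavidin capture, RNA was measured by qPCR in triplicate and by Illumina sequencing, and catalytic enhancement was calculated as median kA over the uncatalyzed rate from a pseudo-first-order fit of per-sequence fraction reacted.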
# [2] = system: biotinyl-Ile-oxazolone; assay: self-aminoacylation, catalytic enhancement (BIO) (fold over background); higher = more active; k-Seq, kA / k0A0; sequences stand for … in GGGAAUGGAUCCACAUCUACGAAUUC…UUCACUGCAGACUUGACGAAGCUG
# Summary of the method: as §1
# [3] = system: biotinyl-Met-oxazolone; assay: self-aminoacylation, catalytic enhancement (BMO) (fold over background); higher = more active; k-Seq, kA / k0A0; sequences stand for … in GGGAAUGGAUCCACAUCUACGAAUUC…UUCACUGCAGACUUGACGAAGCUG
# Summary of the method: as §1
# [4] = system: biotinyl-Val-oxazolone; assay: self-aminoacylation, catalytic enhancement (BVO) (fold over background); higher = more active; k-Seq, kA / k0A0; sequences stand for … in GGGAAUGGAUCCACAUCUACGAAUUC…UUCACUGCAGACUUGACGAAGCUG
# Summary of the method: as §1
# [5] = system: biotinyl-Leu-oxazolone; assay: self-aminoacylation, catalytic enhancement (BLO) (fold over background); higher = more active; k-Seq, kA / k0A0; sequences stand for … in GGGAAUGGAUCCACAUCUACGAAUUC…UUCACUGCAGACUUGACGAAGCUG
# Summary of the method: as §1
# [6] = system: biotinyl-Trp-oxazolone; assay: self-aminoacylation, catalytic enhancement (BWO) (fold over background); higher = more active; k-Seq, kA / k0A0; sequences stand for … in GGGAAUGGAUCCACAUCUACGAAUUC…UUCACUGCAGACUUGACGAAGCUG
# Summary of the method: as §1
Sequence,self-aminoacylation [1],self-aminoacylation [2],self-aminoacylation [3],self-aminoacylation [4],self-aminoacylation [5],self-aminoacylation [6]
CUACUUCACACAAUCGGUCUA [Fam1A.1 aminoacylation ribozyme variant],0.822,0.72,0.626,0.834,0.802,0.777
CUACUUCACACAAUCGUUCUG [Fam1A.1 aminoacylation ribozyme variant],0.66,0.649,0.477,0.61,0.484,0.392
CUACUUCACGCAAUCGGUCUG [Fam1A.1 aminoacylation ribozyme variant],0.929,0.837,0.912,0.908,0.711,0.819
CUACUUCAGACAAUCGGUCUC [Fam1A.1 aminoacylation ribozyme variant],1.09,0.936,0.857,0.977,0.895,0.825
CUACUUCAGACAAUCGGUCUG [Fam1A.1 aminoacylation ribozyme variant],1.19,0.782,0.758,0.822,0.807,0.857
CUACUUCAGACACUCGGUCUG [Fam1A.1 aminoacylation ribozyme variant],1.77,1.2,1.49,1.54,1.52,1.03
CUACUUCAGACCAUCGGUCUG [Fam1A.1 aminoacylation ribozyme variant],1.06,1.1,1.25,1.07,1.14,0.856
CUACUUCAGCCAAUCGGUCUG [Fam1A.1 aminoacylation ribozyme variant],0.64,0.691,0.713,0.673,0.842,0.425
CUACUUCAUAAAAUCGGUCUG [Fam1A.1 aminoacylation ribozyme variant],0.567,0.656,0.699,0.641,0.622,0.389
CUACUUCAUACAAUCGAUCUG [Fam1A.1 aminoacylation ribozyme variant],0.752,0.657,0.653,0.806,0.505,0.601
CUACUUCAUACAAUCGGUCUU [Fam1A.1 aminoacylation ribozyme variant],0.932,1.01,0.724,0.972,0.844,0.491
CUACUUCAUACAAUCUGUCUG [Fam1A.1 aminoacylation ribozyme variant],0.66,0.668,0.64,0.682,0.566,0.424
CUACUUCAUACAAUUGGUCUG [Fam1A.1 aminoacylation ribozyme variant],0.656,0.743,0.755,0.849,0.731,0.453
CUACUUCAUACAGUCGGUCUG [Fam1A.1 aminoacylation ribozyme variant],0.496,0.574,0.52,0.67,0.556,0.282
CUACUUCAUAGAAUCGGUCUG [Fam1A.1 aminoacylation ribozyme variant],0.644,0.783,0.75,0.749,0.837,0.698
CUACUUCCAACAAUCGGUGUG [Fam1A.1 aminoacylation ribozyme variant],0.789,0.97,1.06,1.03,1.28,1.09
CUACUUCCAACAGUCGGUCUG [Fam1A.1 aminoacylation ribozyme variant],0.496,0.911,1.06,0.851,0.971,0.76
CUACUUCCAACAUUCGGUCUG [Fam1A.1 aminoacylation ribozyme variant],1.68,1.17,1.07,1.39,1.54,1.16
CUACUUCCAGCAAUCGGUCUG [Fam1A.1 aminoacylation ribozyme variant],0.605,0.87,0.77,0.961,1.04,0.458
CUACUUCGAACAACCGGUCUG [Fam1A.1 aminoacylation ribozyme variant],0.394,0.822,0.734,1.21,0.836,0.949
CUACUUCGAACAAUCGGCCUG [Fam1A.1 aminoacylation ribozyme variant],4.78,1.6,1.71,1.54,1.36,1.84
CUACUUCGAACAAUCGGUGUG [Fam1A.1 aminoacylation ribozyme variant],0.861,1.03,1.13,0.999,1.26,1.25
CUACUUCGAACAAUCGUUCUG [Fam1A.1 aminoacylation ribozyme variant],0.268,0.432,0.453,0.49,0.457,0.368
CUACUUCGAACAAUCUGUCUG [Fam1A.1 aminoacylation ribozyme variant],0.413,0.539,0.51,0.576,0.576,0.337
CUACUUCGAACCAUCGGUCUG [Fam1A.1 aminoacylation ribozyme variant],0.458,0.723,0.813,0.779,0.61,0.463
CUACUUCUAACAAUCGGUCGG [Fam1A.1 aminoacylation ribozyme variant],0.725,0.843,0.626,0.728,0.978,0.653
